The labels stand for the following.
B1: IgG1-F800 (antibody)
heavy: QVQLQESGPGLVKPSETLSLTCAVSGHSISHDHAWSWVRQPPGEGLEWIGFISYSGITNYNPSLQGRVTISRDNSKNTLYLQMNSLRAEDTAVYYCARSLARTTAMDYWGEGTLVTVSSASTKGPSVFPLAPSSKSTSGGTAALGCLVKDYFPEPVTVSWNSGALTSGVHTFPAVLQSSGLYSLSSVVTVPSSSLGTQTYICNVNHKPSNTKVDKKVEPKSCDKTHTCPPCPAPELLGGPSVFLFPPKPKDTLYISRTPEVTCVVVDVSHEDPEVKFNWYVDGVEVHNAKTKPREEQYNSTYRVVSVLTVLHQDWLSGKEYKCKVSNKALPAPIEKTISKAKGQPREPQVYTLPPSRDELTKNQVSLTCLVKGFYPSDIAVEWESNGQPENNYKTTPPVLDSDGSFFLYSKLTVDKSRWQQGNVFSCSVMHEALHYHYTQKSLSLSP
light: not shown
notes: EU numbering; copies: 2 + 2
B2: IgG1-F806 (antibody)
heavy: QVQLQESGPGLVKPSETLSLTCAVSGHSISHDHAWSWVRQPPGEGLEWIGFISYSGITNYNPSLQGRVTISRDNSKNTLYLQMNSLRAEDTAVYYCARSLARTTAMDYWGEGTLVTVSSASTKGPSVFPLAPSSKSTSGGTAALGCLVKDYFPEPVTVSWNSGALTSGVHTFPAVLQSSGLYSLSSVVTVPSSSLGTQTYICNVNHKPSNTKVDKKVEPKSCDKTHTCPPCPAPELLGGPSVFLFPPKPKDTLYISRTPEVTCVVVDVSHEDPEVKFNWYVDGVEVHNAKTKPREEQYNSTYRVVSVLTVLHQDWLNGKEYKCKVSNKALPAPIEKTISKAKGQPREPQVYTLPPSRDELTKNQVSLTCLVKGFYPSDIAVEWESAGQPENNYKTTPPVLDSDGSFFLYSKLTVDKSRWQQGNVFSCSVMHEALHYHYTQKSLSLSP
light: not shown
notes: EU numbering; copies: 2 + 2
B3: IgG1-F807 (antibody)
heavy: QVQLQESGPGLVKPSETLSLTCAVSGHSISHDHAWSWVRQPPGEGLEWIGFISYSGITNYNPSLQGRVTISRDNSKNTLYLQMNSLRAEDTAVYYCARSLARTTAMDYWGEGTLVTVSSASTKGPSVFPLAPSSKSTSGGTAALGCLVKDYFPEPVTVSWNSGALTSGVHTFPAVLQSSGLYSLSSVVTVPSSSLGTQTYICNVNHKPSNTKVDKKVEPKSCDKTHTCPPCPAPELLGGPSVFLFPPKPKDTLYISRTPEVTCVVVDVSHEDPEVKFNWYVDGVEVHNAKTKPREEQYNSTYRVVSVLTVLHQDWLNGKEYKCKVSNKALPAPIEKTISKAKGQPREPQVYTLPPSRDELTKNQVSLTCLVKGFYPSDIAVEWESNGQPEANYKTTPPVLDSDGSFFLYSKLTVDKSRWQQGNVFSCSVMHEALHYHYTQKSLSLSP
light: not shown
notes: EU numbering; copies: 2 + 2
B4: IgG1-F811 (antibody)
heavy: QVQLQESGPGLVKPSETLSLTCAVSGHSISHDHAWSWVRQPPGEGLEWIGFISYSGITNYNPSLQGRVTISRDNSKNTLYLQMNSLRAEDTAVYYCARSLARTTAMDYWGEGTLVTVSSASTKGPSVFPLAPSSKSTSGGTAALGCLVKDYFPEPVTVSWNSGALTSGVHTFPAVLQSSGLYSLSSVVTVPSSSLGTQTYICNVNHKPSNTKVDKKVEPKSCDKTHTCPPCPAPELLGGPSVFLFPPKPKDTLYISRTPEVTCVVVDVSHEDPEVKFNWYVDGVEVHNAKTKPREEQYNSTYRVVSVLTVLHQDWLNGKEYKCKVSNKALPAPIEKTISKAKGQPREPQVYTLPPSRDELTKNQVSLTCLVKGFYPSDIAVSWESNGQPENNYKTTPPVLDSDGSFFLYSKLTVDKSRWQQGNVFSCSVMHEALHYHYTQKSLSLSP
light: not shown
notes: EU numbering; copies: 2 + 2
B5: IgG1-F805 (antibody)
heavy: QVQLQESGPGLVKPSETLSLTCAVSGHSISHDHAWSWVRQPPGEGLEWIGFISYSGITNYNPSLQGRVTISRDNSKNTLYLQMNSLRAEDTAVYYCARSLARTTAMDYWGEGTLVTVSSASTKGPSVFPLAPSSKSTSGGTAALGCLVKDYFPEPVTVSWNSGALTSGVHTFPAVLQSSGLYSLSSVVTVPSSSLGTQTYICNVNHKPSNTKVDKKVEPKSCDKTHTCPPCPAPELLGGPSVFLFPPKPKDTLYISRTPEVTCVVVDVSHEDPEVKFNWYVDGVEVHNAKTKPREEQYNSTYRVVSVLTVLHQDWLNGKEYKCKVSAKALPAPIEKTISKAKGQPREPQVYTLPPSRDELTKNQVSLTCLVKGFYPSDIAVEWESNGQPENNYKTTPPVLDSDGSFFLYSKLTVDKSRWQQGNVFSCSVMHEALHYHYTQKSLSLSP
light: not shown
notes: EU numbering; copies: 2 + 2
B6: IgG1-F812 (antibody)
heavy: QVQLQESGPGLVKPSETLSLTCAVSGHSISHDHAWSWVRQPPGEGLEWIGFISYSGITNYNPSLQGRVTISRDNSKNTLYLQMNSLRAEDTAVYYCARSLARTTAMDYWGEGTLVTVSSASTKGPSVFPLAPSSKSTSGGTAALGCLVKDYFPEPVTVSWNSGALTSGVHTFPAVLQSSGLYSLSSVVTVPSSSLGTQTYICNVNHKPSNTKVDKKVEPKSCDKTHTCPPCPAPELLGGPSVFLFPPKPKDTLYISRTPEVTCVVVDVSHEDPEVKFNWYVDGVEVHNAKTKPREEQYNSTYRVVSVLTVLHQDWLNGKEYKCKVSNKALPAPIEKTISKAKGQPREPQVYTLPPSRDELTKNQVSLTCLVKGFYPSDIAVEWVSNGQPENNYKTTPPVLDSDGSFFLYSKLTVDKSRWQQGNVFSCSVMHEALHYHYTQKSLSLSP
light: not shown
notes: EU numbering; copies: 2 + 2
B7: IgG1-F809 (antibody)
heavy: QVQLQESGPGLVKPSETLSLTCAVSGHSISHDHAWSWVRQPPGEGLEWIGFISYSGITNYNPSLQGRVTISRDNSKNTLYLQMNSLRAEDTAVYYCARSLARTTAMDYWGEGTLVTVSSASTKGPSVFPLAPSSKSTSGGTAALGCLVKDYFPEPVTVSWNSGALTSGVHTFPAVLQSSGLYSLSSVVTVPSSSLGTQTYICNVNHKPSNTKVDKKVEPKSCDKTHTCPPCPAPELLGGPSVFLFPPKPKDTLYITRSPEVTCVVVDVSHEDPEVKFNWYVDGVEVHNAKTKPREEQYNSTYRVVSVLTVLHQDWLNGKEYKCKVSNKALPAPIEKTISKAKGQPREPQVYTLPPSRDELTKNQVSLTCLVKGFYPSDIAVEWESNGQPENNYKTTPPVLDSDGSFFLYSKLTVDKSRWQQGNVFSCSVMHEALHYHYTQKSLSLSP
light: not shown
notes: EU numbering; copies: 2 + 2
B8: IgG1-F804 (antibody)
heavy: QVQLQESGPGLVKPSETLSLTCAVSGHSISHDHAWSWVRQPPGEGLEWIGFISYSGITNYNPSLQGRVTISRDNSKNTLYLQMNSLRAEDTAVYYCARSLARTTAMDYWGEGTLVTVSSASTKGPSVFPLAPSSKSTSGGTAALGCLVKDYFPEPVTVSWNSGALTSGVHTFPAVLQSSGLYSLSSVVTVPSSSLGTQTYICNVNHKPSNTKVDKKVEPKSCDKTHTCPPCPAPELLGGPSVFLFPPKPKDTLYISRTPEVTCVVVDVSHEDPEVKFNWYVDGVEVHNAKTKPREEQYNSTYRVVSVLTVLHQDWLYGKEYKCKVSNKALPAPIEKTISKAKGQPREPQVYTLPPSRDELTKNQVSLTCLVKGFYPSDIAVEWESNGQPENNYKTTPPVLDSDGSFFLYSKLTVDKSRWQQGNVFSCSVMHEALHYHYTQKSLSLSP
light: not shown
notes: EU numbering; copies: 2 + 2
B9: IgG1-F801 (antibody)
heavy: QVQLQESGPGLVKPSETLSLTCAVSGHSISHDHAWSWVRQPPGEGLEWIGFISYSGITNYNPSLQGRVTISRDNSKNTLYLQMNSLRAEDTAVYYCARSLARTTAMDYWGEGTLVTVSSASTKGPSVFPLAPSSKSTSGGTAALGCLVKDYFPEPVTVSWNSGALTSGVHTFPAVLQSSGLYSLSSVVTVPSSSLGTQTYICNVNHKPSNTKVDKKVEPKSCDKTHTCPPCPAPELLGGPSVFLFPPKPKDTLYISRTPEVTCVVVDVSHEDPEVKFNWYVDGVEVHNAKTKPREEQYNSTYRVVSVLTVLHQDWLTGKEYKCKVSNKALPAPIEKTISKAKGQPREPQVYTLPPSRDELTKNQVSLTCLVKGFYPSDIAVEWESNGQPENNYKTTPPVLDSDGSFFLYSKLTVDKSRWQQGNVFSCSVMHEALHYHYTQKSLSLSP
light: not shown
notes: EU numbering; copies: 2 + 2
B10: IgG1-F810 (antibody)
heavy: QVQLQESGPGLVKPSETLSLTCAVSGHSISHDHAWSWVRQPPGEGLEWIGFISYSGITNYNPSLQGRVTISRDNSKNTLYLQMNSLRAEDTAVYYCARSLARTTAMDYWGEGTLVTVSSASTKGPSVFPLAPSSKSTSGGTAALGCLVKDYFPEPVTVSWNSGALTSGVHTFPAVLQSSGLYSLSSVVTVPSSSLGTQTYICNVNHKPSNTKVDKKVEPKSCDKTHTCPPCPAPELLGGPSVFLFPPKPKDTLYISRTPEVTCVVVDVSHEDPEVKFNWYVDGVEVHNAKTKPREEQYNSTYRVVSVLTVLHQDWLNGKEYKCKVSNKALPAPIEKTISKAKGQPREPQVYTLPPSRDELTKNQVSLTCLVKGFYPSDIVVEWESNGQPENNYKTTPPVLDSDGSFFLYSKLTVDKSRWQQGNVFSCSVMHEALHYHYTQKSLSLSP
light: not shown
notes: EU numbering; copies: 2 + 2
B11: IgG1-F808 (antibody)
heavy: QVQLQESGPGLVKPSETLSLTCAVSGHSISHDHAWSWVRQPPGEGLEWIGFISYSGITNYNPSLQGRVTISRDNSKNTLYLQMNSLRAEDTAVYYCARSLARTTAMDYWGEGTLVTVSSASTKGPSVFPLAPSSKSTSGGTAALGCLVKDYFPEPVTVSWNSGALTSGVHTFPAVLQSSGLYSLSSVVTVPSSSLGTQTYICNVNHKPSNTKVDKKVEPKSCDKTHTCPPCPAPELLGGPSVFLFPPKPKDTLYISRTPEVTCVVVDVSHEDPEVKFNWYVDGVEVHNAKTKPREEQYNSTYRVVSVLTVLHQDWLNGKEYKCKVSNKALPAPIEKTISKAKGQPREPQVYTLPPSRDELTKNQVSLTCLVKGFYPSDIAVEWESNGQPEAAYKTTPPVLDSDGSFFLYSKLTVDKSRWQQGNVFSCSVMHEALHYHYTQKSLSLSP
light: not shown
notes: EU numbering; copies: 2 + 2
B12: IgG1-F803 (antibody)
heavy: QVQLQESGPGLVKPSETLSLTCAVSGHSISHDHAWSWVRQPPGEGLEWIGFISYSGITNYNPSLQGRVTISRDNSKNTLYLQMNSLRAEDTAVYYCARSLARTTAMDYWGEGTLVTVSSASTKGPSVFPLAPSSKSTSGGTAALGCLVKDYFPEPVTVSWNSGALTSGVHTFPAVLQSSGLYSLSSVVTVPSSSLGTQTYICNVNHKPSNTKVDKKVEPKSCDKTHTCPPCPAPELLGGPSVFLFPPKPKDTLYISRTPEVTCVVVDVSHEDPEVKFNWYVDGVEVHNAKTKPREEQYNSTYRVVSVLTVLHQDWLWGKEYKCKVSNKALPAPIEKTISKAKGQPREPQVYTLPPSRDELTKNQVSLTCLVKGFYPSDIAVEWESNGQPENNYKTTPPVLDSDGSFFLYSKLTVDKSRWQQGNVFSCSVMHEALHYHYTQKSLSLSP
light: not shown
notes: EU numbering; copies: 2 + 2

T1 sequence (chain, as listed by the source limits assumed, chain 1 of 2): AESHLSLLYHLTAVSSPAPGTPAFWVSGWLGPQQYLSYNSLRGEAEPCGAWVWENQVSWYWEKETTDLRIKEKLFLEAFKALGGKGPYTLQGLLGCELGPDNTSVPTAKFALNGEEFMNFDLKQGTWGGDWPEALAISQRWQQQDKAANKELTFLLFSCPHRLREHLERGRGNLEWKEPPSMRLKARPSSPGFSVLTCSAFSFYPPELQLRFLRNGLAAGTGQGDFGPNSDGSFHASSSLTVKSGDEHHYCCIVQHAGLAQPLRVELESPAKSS
T1 sequence (P61769 21-119 limits assumed, chain 2 of 2): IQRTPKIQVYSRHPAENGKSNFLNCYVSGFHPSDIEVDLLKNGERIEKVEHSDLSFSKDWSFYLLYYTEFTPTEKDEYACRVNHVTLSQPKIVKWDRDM

This experiment has as its target T1, soluble human FcRn complexed with β2-microglobulin (human, UniProt P61769 21-119, limits assumed).
T1 construct: also called hFcRn
As to the kind of experiment: Biacore SPR, pH 7.0.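 Note: test antibodies captured on a Protein L chip with human FcRn flowed over as analyte, KD obtained as the ratio of dissociation to association rate constants.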 Background: SPR reads the build-up and loss of mass on a sensor chip optically.
What is called Kd is the free concentration of one partner at which half of the binding sites on the other are occupied at equilibrium, for simple one-to-one binding. Low values mean tighter binding, high ones weaker binding. As for B1, the Kd was found to be 380 nM.
As to B2, the Kd worked out at 310 nM.
Next, B3: 320 nM; B4: 490 nM.
For B5, the Kd was determined as 300 nM.
Under B6 stands 270 nM; under B7, 220 nM.
B8 yielded a Kd of 400 nM.
Next, B9: 440 nM; B10: 220 nM; B11: 320 nM.
Turning to B12, binding was put at a Kd of 360 nM.

(Values after patent publication US20200199241A1 (Chugai, published 2020).)
